Drawing on PMC7595197, this text covers stoichiometry N for one substance.

This assay concerns the target AtaT (G108D) (enterohemorrhagic E. coli O157:H7). The experiment in a line: crystal structure.

As a reminder, the stoichiometry N is the number of molecules, sites or subunits per partner or assembly. Regarding AtaT (G108D) (enzyme), the stoichiometry N amounted to 2.
